The source of these data is patent US7144986B2, “Polypeptides comprising IL-6 ligand binding receptor domains” (The United States of America as represented by the …, priority 1999, dated 2006).

For this assay, the target named is recombinant human IL-6 (Homo sapiens, UniProt P05231). Kind of assay: Binding of radioiodinated recombinant human IL-6 to synthetic peptide arrays in 96-well microtiter plates. To be noted: for Initial screening of IL-6 receptor primary sequence for binding of IL-6 ligand: receptor sequence taken 21 amino acid residues at a time. Here is the method: Synthetic peptide arrays were constructed in 96-well microtiter plates in accordance with the method set forth in WO 91/02714 (Saxinger), and used to test the binding of recombinant human IL-6 that had been labeled with radioactive iodine (radiolabeling by standard methods). After incubating the radiolabeled IL-6 ligand in a well with each synthetic peptide, a washing step was performed to remove unbound label, and the relative level of radioactivity remaining in each well of the plate was evaluated to determine the relative affinity of each peptide for IL-6 ligand.
Sequence of recombinant human IL-6 (P05231 30-212): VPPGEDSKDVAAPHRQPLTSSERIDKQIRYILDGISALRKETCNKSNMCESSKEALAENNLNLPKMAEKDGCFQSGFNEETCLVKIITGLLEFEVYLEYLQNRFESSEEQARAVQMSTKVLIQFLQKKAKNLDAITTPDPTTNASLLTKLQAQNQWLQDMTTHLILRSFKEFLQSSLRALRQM
Each of the four binding domains was analyzed in detail, which is set forth in these examples. First, serial truncations (or nested truncations) were performed from each end of the peptides to determine the location of the critical binding residues within each domain. Second, each amino acid residue in the critical regions of each domain were serially replaced by an alaninyl residue to indicate whether the side-chain of the residue at each particular location is likely to be essential or important to the mechanism of binding.
This example employs essentially the same techniques as Examples 1–4 except that fragments of the β-chain of the IL-6 receptor are used. As is known in the art, the β-chain is shared by multiple receptors. Thus, the identified fragments here are effective inhibitors of a multiplicity of binding reactions in addition to the IL-6 ligand:IL-6 receptor interaction.

The mark [1] stands for this setting: Example 2, domain II peptides (IL-6 receptor residues 136–156): truncations and alanine replacements.
Where [2] appears, read: Example 3, domain III peptides (IL-6 receptor residues 246–266): truncations and alanine replacements.
Setting [3] is: Example 1, domain I peptides (IL-6 receptor residues 66–86): truncations and alanine replacements, radiolabeled IL-6 remaining after wash.
The mark [4] stands for this setting: Example 5, fragments of the β-chain of the IL-6 receptor.
Where [5] appears, read: Example 4, domain IV peptides, D11–D57, separate experiment: truncations and alanine replacements.

Take TKAVLLVRKFQNS [Peptide B25]: under setting [1], the Counts/minute bound is 5753 Counts/minute.

For the substance PRSTPSLTTKAVLL [Peptide B8], the Counts/minute bound under setting [1] was found to be 1846 Counts/minute.

Regarding SSFYRLRFELRYRAERSKTFT [Peptide C1], the “Initial screening of IL-6 receptor primary sequence for binding of IL-6 ligand” value (from here on “Initial screening”) is listed as “active binding sequences”. In addition, the Counts/minute bound under setting [2] was 14571 Counts/minute.

As for AAGSHPSRWAGMGRRL [Peptide A6], the Counts/minute bound under setting [3] is 1753 Counts/minute.

Turning to TKAVLLVRKFQNS [Peptide B26], the Counts/minute bound under setting [1] was 5226 Counts/minute.

In the case of LTCNILTFGQLEQNVYGITIISGL [Peptide E11], the Counts/minute bound under setting [4] is on record as 1816 Counts/minute.

Regarding SSFYRLRFELRYRAERSKTFT [Peptide C17], under setting [2], the Counts/minute bound was determined as 15127 Counts/minute.

As for GGSLAFGTLLCIAIVLRFKKT [Peptide D43], under setting [5], the Counts/minute bound came to 20385 Counts/minute.

For the substance LRFKKT [Peptide D42], under setting [5], the Counts/minute bound is 1958 Counts/minute.

As to PRSTPSLTTKAVLLVRKFQNS [Peptide B17], the Counts/minute bound under setting [1] was found to be 12347 Counts/minute.

Turning to GGSLAFGTLLCIAIVLRFKKT [Peptide D27], the Counts/minute bound under setting [5] was found to be 21945 Counts/minute.

In the case of SDKAPCITDWQQEDGTVHRTYLRG [Peptide E47], the Counts/minute bound under setting [4] is reported as 2079 Counts/minute.

Turning to PRSTPSLTTKAVLLVRKFQNS [Peptide B33], under setting [1], the Counts/minute bound was found to be 11699 Counts/minute.

For the substance GGSLAFGTLLCIAIVLRFKKT [Peptide D11], the Counts/minute bound under setting [5] is 20349 Counts/minute.

In the case of GGSLAFGTLLCIAIVLRFKKT [Peptide D5], the “Initial screening” value is “active binding sequences”.

Consider AAGSHPSRWAGMGRRLLLRSV [Peptide A33], for which the Counts/minute bound under setting [3] turned out to be 10213 Counts/minute.

For the substance AAGSHPSRWAGMGRRLLLRSV [Peptide A17], the Counts/minute bound under setting [3] is recorded as 10884 Counts/minute.

Regarding AAGSHPSRWAGMGRRLLLRSV [Peptide A1], the “Initial screening” value was “active binding sequences”. Besides, the Counts/minute bound under setting [3] amounted to 10739 Counts/minute.

As to SSFYRLRFELRYRAERSKTFT [Peptide C33], the Counts/minute bound under setting [2] is on record as 14610 Counts/minute.

In the case of PRSTPSLTTKAVLLVRKFQNS [Peptide B1], the “Initial screening” value was “active binding sequences”. In addition, the Counts/minute bound under setting [1] is on record as 10790 Counts/minute.
